Molecular target: T1, SET domain of human SETD2 (residue 1435–1711, encompassing the AWS, SET, and post-SET regions) (human, UniProt Q9BYW2 1435-1711)
T1 construct: SETD2, human, residues 1435–1711 (AWS, SET and post-SET regions), in the pET28-MHL vector; The His-tag was not removed for crystallization; A longer construct (1347–1711, 6xHis, Talon beads) was used for the histone methyltransferase assays; also called SETD2 SET domain; recombinant SET domain of SETD2; not shown: His6, N-terminal, kept
T1 sequence (looked up): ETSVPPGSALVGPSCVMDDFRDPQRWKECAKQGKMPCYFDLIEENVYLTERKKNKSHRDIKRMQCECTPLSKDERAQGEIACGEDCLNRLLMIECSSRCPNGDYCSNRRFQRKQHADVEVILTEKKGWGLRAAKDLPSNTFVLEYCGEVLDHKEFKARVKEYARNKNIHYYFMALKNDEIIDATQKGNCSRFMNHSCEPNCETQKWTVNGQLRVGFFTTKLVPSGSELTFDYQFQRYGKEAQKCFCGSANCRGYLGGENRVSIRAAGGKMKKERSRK
Test: crystal structure; SETD2 (10 mg/ml) incubated with SAM and H3K36M peptide at a molar ratio of 1:10:10; sitting drop, 20 °C, 0.1 M KSCN, 24% PEG 2000 MME; two ternary complexes, with SAM (2.42 Å) and with SAH (2.4 Å)
Conditions: both partners purified

- binding result: binds
B1: H3K36M peptide (29-APATGGVMKPHRYRP-43) (peptide)
peptide: APATGGVMKPHRYRP
notes: histone H3 tail, residues 29–43, with K36M; also called H3K36M (29–43) peptide; source: synthetic peptide (Eurogentec for the crystals; Anaspec for the thermal shift assay)
